Experimental data from patent US20030073808A1 (KIMBERLY CLARK WORLDWIDE, published 2003).
Primed or numbered codes have the meaning given here. Where no end group is shown, it is not given here. PSDE = pyridine disulfide ethylenediaminetetraacetic acid; AFTA = 2-amino-4-fluorophenol N,N,O-triacetic acid; AFTA″ = not defined here

Assays:
Active MMP-9 enzyme [1] = target: T1, Active MMP-9 enzyme (UniProt P14780 107-707, limits assumed); experiment: enzyme inhibition of MMP-9 (FRET substrate peptide cleavage, inhibitory constants derived from the curves)
T1 construct: Bought as 'Active MMP-9 enzyme' from Calbiochem
T1 sequence (P14780 107-707 limits assumed): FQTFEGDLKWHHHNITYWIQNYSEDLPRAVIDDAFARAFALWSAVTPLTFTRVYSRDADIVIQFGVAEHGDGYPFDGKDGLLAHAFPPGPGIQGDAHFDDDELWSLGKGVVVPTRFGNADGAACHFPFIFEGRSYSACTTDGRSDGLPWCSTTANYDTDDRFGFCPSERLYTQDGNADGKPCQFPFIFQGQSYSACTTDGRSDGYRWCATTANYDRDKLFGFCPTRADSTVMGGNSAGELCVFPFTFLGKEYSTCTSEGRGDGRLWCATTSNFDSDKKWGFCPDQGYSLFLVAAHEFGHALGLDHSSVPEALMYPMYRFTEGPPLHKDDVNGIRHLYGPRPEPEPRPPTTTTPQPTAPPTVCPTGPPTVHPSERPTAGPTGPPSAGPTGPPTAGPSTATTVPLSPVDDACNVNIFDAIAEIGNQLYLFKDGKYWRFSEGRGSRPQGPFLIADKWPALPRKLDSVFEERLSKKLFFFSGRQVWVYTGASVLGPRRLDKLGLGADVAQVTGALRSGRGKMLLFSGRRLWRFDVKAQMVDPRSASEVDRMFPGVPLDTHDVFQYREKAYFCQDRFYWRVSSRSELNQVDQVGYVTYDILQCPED
Procedure: FIG. 4 illustrates ChePep-5 regulation of MMP-9 via FRET assay. ChePep-5 is composed of a AFTA combined with a peptide having SEQ ID No. 7. ChePep-5 was incubated with MP-9 for 10 minutes to effect binding. This mixture was added to the FRET substrate peptide in reaction buffer. Fluorescence measurements were made at the indicated times. The curves represent ChepPep-5: MMP-9 molar stoichiometries of 0:1 (closed circles), 0.1:1 (open circles), 0.2:1 (closed squares), 0.3:1 (open squares). Excitation was at 365 nm, and the emission was fixed at 450 nm.
The second assay utilized the technique of fluorescence resonance energy transfer (FRET). The substrate peptide (Calbiochem #444221) comprised seven amino acids, coupled to a carboxyl terminal dinitrophenyl acceptor, and an amino terminal 2-aminobenzo-anthraniloyl (Abz) moiety donor. Cleavage of this substrate by MMP-9 results in the liberation of a fluorescent product (365 nm excitation, 450 nm emission). […] MMP at a concentration of 0.1 μM was mixed with varying amounts of chelating peptide (0, 0.01, 0.02, 0.04, and 0.1 μM) and incubated at 25° C. for 10 minutes to effect binding. The protein mixture was added to the peptide substrate and mixed quickly. Fluorescence intensity as a function of time was measured with a Dynex MFX fluorescence microtiter plate reader. Fluorescence intensity was related back to moles of peptide cleaved by producing a standard curve with an Abz containing non-FRET peptide. Inhibitory constants were derived from the curves and are listed below in Table 2.

Active MMP-9 enzyme [2] = target: T1, Active MMP-9 enzyme; experiment: enzyme inhibition of MMP-9 (fluorescent substrate cleavage, inhibitory constants derived from the curves)
Procedure: Two enzymatic assays were performed. The first assay measured the enzymatic hydrolysis of fluoresceinated collagen by MMP-9 as a function of time. Fluoresceinated collagen (Molecular Probes, Inc.), at a concentration of 5 μM was added to reaction buffer (50 mM Tris-HCl (pH 7.6), 150 mM NaCl, 5 mM CaCl₂, 0.1 mM NaN₃) and was placed into a Spectrosil quartz fluorometer cuvette. MMP at a concentration of 0.1 μM was mixed with varying amounts of chelating peptide having SEQ ID No. 4 or 6 and incubated at 25° C. for 10 minutes to effect binding. The protein mixture was added to the collagen substrate and mixed quickly. Fluorescence emission intensity at 520 nm was measured as a function of time (excitation wavelength 495 nm) in a Shimadzu RF5301 fluorometer. The fluorescein release assay was used to determine the inhibitory constant (Kᵢ) of the chelating peptide inhibitor ([I]) according to Segel (1993) via the use of Dixon plots (1/v vs. [I]), such that: […]

B1: ChePep-6 (AFTA combined with a peptide having SEQ ID No. 8) (peptide)
peptide: {AFTA″}-CTCVP
modifications: cysteine pairing not given here; reading uncertain
notes: also called ChepPep-6; chelating peptide (CP)
B1 was tested, and the Ki (Active MMP-9 enzyme [1]) was 125 µM.

Binder {AFTA}-VHTHLCD (also called ChepPep-5) [ChePep-5 (AFTA combined with a peptide having SEQ ID No. 7)] has a Ki (Active MMP-9 enzyme [1]) of 221 µM.

In the case of IYTAC(PSDE)MSAV (not fully specified (C-terminus)) [ChePep-3 (PSDE combined with a peptide having SEQ ID No. 6)], the Ki (Active MMP-9 enzyme [1]) is reported as 350 µM.

B2: ChePep-1 (PSDE coupled with the peptide having SEQ ID No. 4) (peptide)
peptide: C(PSDE)SAVPVH
notes: Synthetic TIMP-derived peptide covalently coupled to a small-molecule zinc chelator (PSDE); also called ChepPep-1; zinc chelating peptide
B2 was tested, and the Ki (Active MMP-9 enzyme [2]) was 98 µM.

D(IDA)SAVPVH-NH2 [ChePep-2 (IDA coupled with a peptide having SEQ ID No. 5)] was tested, and the Ki (Active MMP-9 enzyme [1]) was 67 µM.
